18 molecules from patent US20210095036A1 (University of Pennsylvania, published 2021) can be followed below.

To fix the notation:
B1: 11.H2m1.L1 (scFv)
scFv: QLVLTQSPSASASLGASVKLTCTLSSAHKTYTIAWHQQQPEKGPRYLMKVKSDGSYSKGDGIPDRFSGSSSGAERYLTISSLQSEDEADYYCGADDNGGYVFGGGTKLTVLGGGSSRSSSSGGGGSGGGGEQSVKESGGGLVQPGGSLRLSCAASGFTLSRHALTWVRQAPGKGLEWIGAIDNAGTTYYASWAKSRFTISRNTDLHTVYLQMNSLRAEDTAVYFCARVFYDINSGYYLDGMDLWGPGTLVTVSS
notes: pIII not in the entry; order Vλ-linker-VH; The printed entry has an E before QSVKE of the VH; also called scFv 11
B2: 1.H1.L3 (scFv)
scFv: QSALTQPASVSGSPGQSITISCTGTSAHKTYTVSWYQQHPGKAPKLMIYVKSDGSYNRPSGVSNRFSGSKSGNTASLTISGLQAEDEADYYCGADDNGGYVFGGGTKLTVLGGGSSRSSSSGGGGSGGGGQVQLQESGPGLVKPSETLSLTCAVSGYSISRHALTWIRQPPGKGLEWIGAIDNAGTTYYASWAKSRVTISVDTSKNQFSLKLSSVTAADTAVYYCARVFYDINSGYYLDGMDLWGPGTLVTVSS
notes: pIII not in the entry; order Vλ-linker-VH; also called scFv 1
B3: 15.H1m1.L1 (scFv)
scFv: QLVLTQSPSASASLGASVKLTCTLSSAHKTYTIAWHQQQPEKGPRYLMKVKSDGSYSKGDGIPDRFSGSSSGAERYLTISSLQSEDEADYYCGADDNGGYVFGGGTKLTVLGGGSSRSSSSGGGGSGGGGQQSVKESGPGLVKPSETLSLTCAVSGFSLSRHALTWVRQPPGKGLEWIGAIDNAGTTYYASWAKSRVTISRNTDLHTVSLKLSSVTAADTAVYFCARVFYDINSGYYLDGMDLWGPGTLVTVSS
notes: pIII not in the entry; order Vλ-linker-VH; also called scFv 15
B4: 5.H2.L2 (scFv)
scFv: QSVLTQPPSASGTPGQRVTISCSGSSAHKTYTVNWYQQLPGTAPKLLIYVKSDGSYQRPSGVPDRFSGSKSGTSASLAISGLQSEDEADYYCGADDNGGYVFGGGTKLTVLGGGSSRSSSSGGGGSGGGGEVQLVESGGGLVQPGGSLRLSCAASGFTFSRHALTWVRQAPGKGLEWVSAIDNAGTTYYASWAKSRFTISRDNAKNSLYLQMNSLRAEDTAVYYCARVFYDINSGYYLDGMDLWGPGTLVTVSS
notes: pIII not in the entry; order Vλ-linker-VH; also called scFv 5
B5: 13.H1.L1 (scFv)
scFv: QLVLTQSPSASASLGASVKLTCTLSSAHKTYTIAWHQQQPEKGPRYLMKVKSDGSYSKGDGIPDRFSGSSSGAERYLTISSLQSEDEADYYCGADDNGGYVFGGGTKLTVLGGGSSRSSSSGGGGSGGGGQVQLQESGPGLVKPSETLSLTCAVSGYSISRHALTWIRQPPGKGLEWIGAIDNAGTTYYASWAKSRVTISVDTSKNQFSLKLSSVTAADTAVYYCARVFYDINSGYYLDGMDLWGPGTLVTVSS
notes: pIII not in the entry; order Vλ-linker-VH; also called scFv 13
B6: 9.H2.L1 (scFv)
scFv: QLVLTQSPSASASLGASVKLTCTLSSAHKTYTIAWHQQQPEKGPRYLMKVKSDGSYSKGDGIPDRFSGSSSGAERYLTISSLQSEDEADYYCGADDNGGYVFGGGTKLTVLGGGSSRSSSSGGGGSGGGGEVQLVESGGGLVQPGGSLRLSCAASGFTFSRHALTWVRQAPGKGLEWVSAIDNAGTTYYASWAKSRFTISRDNAKNSLYLQMNSLRAEDTAVYYCARVFYDINSGYYLDGMDLWGPGTLVTVSS
notes: pIII not in the entry; order Vλ-linker-VH; also called scFv 9
B7: 28.H1.L3m5 (scFv)
scFv: QSALTQPASVSGSPGQSITISCTGTSAHKTYTVSWYQQHPGKAPKLMIYVKSDGSYTKGTGVPNRFSGSSSGADRYLTISGLQAEDEADYYCGADDNGGYVFGGGTQLTVLGGGSSRSSSSGGGGSGGGGQVQLQESGPGLVKPSETLSLTCAVSGYSISRHALTWIRQPPGKGLEWIGAIDNAGTTYYASWAKSRVTISVDTSKNQFSLKLSSVTAADTAVYYCARVFYDINSGYYLDGMDLWGPGTLVTVSS
notes: pIII not in the entry; order Vλ-linker-VH; also called scFv 28
B8: 18.H1.L3m3 (scFv)
scFv: B2 scFv with V33I, S34D, N57T, R58K, P59G, S60T, K107Q
notes: pIII not in the entry; order Vλ-linker-VH; also called scFv 18
B9: 27.H1.L3m4 (scFv)
scFv: B7 scFv with L46Y, M47L, I48M, Y49Q
notes: pIII not in the entry; order Vλ-linker-VH; also called scFv 27
B10: 16.H1m1.L1m1 (scFv)
scFv: B3 scFv with L2F, A34D, H36Y, K49Q, S57T, D60T, I62V, E74D, K107Q, L111T
notes: pIII not in the entry; order Vλ-linker-VH; also called scFv 16
B11: 24.H2.L3m1 (scFv)
scFv: QFVLTQPASVSGSPGQSITISCTLSSAHKTYTIDWYQQHPGKAPKYLMQVKSDGSYTKGTGVPNRFSGSSSGADRYLTISGLQAEDEADYVCGADDNGGYVFGGGTQLTVTGGGSSRSSSSGGGGSGGGGEVQLVESGGGLVQPGGSLRLSCAASGFTFSRHALTWVRQAPGKGLEWVSAIDNAGTTYYASWAKSRFTISRDNAKNSLYLQMNSLRAEDTAVYYCARVFYDINSGYYLDGMDLWGPGTLVTVSS
notes: pIII not in the entry; order Vλ-linker-VH; also called scFv 24
B12: 4.H1m1.L3m1 (scFv)
scFv: QFVLTQPASVSGSPGQSITISCTLSSAHKTYTIDWYQQHPGKAPKYLMQVKSDGSYTKGTGVPNRFSGSSSGADRYLTISGLQAEDEADYVCGADDNGGYVFGGGTQLTVTGGGSSRSSSSGGGGSGGGGQQSVKESGPGLVKPSETLSLTCAVSGFSLSRHALTWVRQPPGKGLEWIGAIDNAGTTYYASWAKSRVTISRNTDLHTVSLKLSSVTAADTAVYFCARVFYDINSGYYLDGMDLWGPGTLVTVSS
notes: pIII not in the entry; order Vλ-linker-VH; also called scFv 4
B13: 19.H2.L2m2 (scFv)
scFv: QFVLTQPPSASGTPGQRVTISCTLSSAHKTYTIDWYQQLPGTAPKLLIYVKSDGSYTKGTGVPDRFSGSSSGADASLAISGLQSEDEADYYCGADDNGGYVFGGGTQLTVLGGGSSRSSSSGGGGSGGGGEVQLVESGGGLVQPGGSLRLSCAASGFTFSRHALTWVRQAPGKGLEWVSAIDNAGTTYYASWAKSRFTISRDNAKNSLYLQMNSLRAEDTAVYYCARVFYDINSGYYLDGMDLWGPGTLVTVSS
notes: pIII not in the entry; order Vλ-linker-VH; also called scFv 19
B14: 6.H2.L2m1 (scFv)
scFv: B13 scFv with A75R, S76Y, L111T
notes: pIII not in the entry; order Vλ-linker-VH; also called scFv 6
B15: 20.H2.L2m3 (scFv)
scFv: B13 scFv with F2S, S70K, A73T, D74S
notes: pIII not in the entry; order Vλ-linker-VH; also called scFv 20
B16: 8.H2m1.L2m1 (scFv)
scFv: QFVLTQPPSASGTPGQRVTISCTLSSAHKTYTIDWYQQLPGTAPKLLIYVKSDGSYTKGTGVPDRFSGSSSGADRYLAISGLQSEDEADYYCGADDNGGYVFGGGTQLTVTGGGSSRSSSSGGGGSGGGGEQSVKESGGGLVQPGGSLRLSCAASGFTLSRHALTWVRQAPGKGLEWIGAIDNAGTTYYASWAKSRFTISRNTDLHTVYLQMNSLRAEDTAVYFCARVFYDINSGYYLDGMDLWGPGTLVTVSS
notes: pIII not in the entry; order Vλ-linker-VH; The printed entry has an E before QSVKE of the VH; also called scFv 8
B17: 29.H2.L1m3 (scFv)
scFv: B6 scFv with A34D, H36Y, K49Q, S57T, D60T, I62V, E74D, K107Q, L111T
notes: pIII not in the entry; order Vλ-linker-VH; The printed VL ends TVT; also called scFv 29
B18: 21.H2.L1m2 (scFv)
scFv: B6 scFv with L2F, A34D, K49Q, S57T, D60T, K107Q
notes: pIII not in the entry; order Vλ-linker-VH; also called scFv 21

Substitutions are numbered along the chain they refer to.

The first experiment deals with T1, GFRα4 isoform a (GFRα4a), Fc fusion with 6 His (human).
T1 construct: the entry holds the whole fusion; also called GFR4α4a; immobilized GFRα4 isoform a
T1 chain: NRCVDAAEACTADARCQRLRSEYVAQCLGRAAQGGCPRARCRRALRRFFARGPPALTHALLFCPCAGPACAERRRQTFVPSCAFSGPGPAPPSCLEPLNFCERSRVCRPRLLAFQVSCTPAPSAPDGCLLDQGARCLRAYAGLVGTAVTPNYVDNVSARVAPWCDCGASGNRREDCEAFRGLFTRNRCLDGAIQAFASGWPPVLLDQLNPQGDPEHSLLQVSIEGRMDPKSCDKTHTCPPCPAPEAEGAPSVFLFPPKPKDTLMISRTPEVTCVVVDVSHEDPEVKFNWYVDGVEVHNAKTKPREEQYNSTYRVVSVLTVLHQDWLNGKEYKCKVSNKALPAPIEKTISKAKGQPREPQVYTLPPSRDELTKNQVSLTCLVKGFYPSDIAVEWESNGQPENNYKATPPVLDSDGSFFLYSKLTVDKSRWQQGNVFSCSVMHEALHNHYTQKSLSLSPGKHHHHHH
In words: phage ELISA, immobilized GFRα4a; first token of the cell (GFRα4b: NT). The source says: (§1) To perform these ELISAs, the GFRα4a isoform comprising a portion of GFRα4a (Asn24 -Ser245, UniProt accession #Q9GZZ7-2) was used, followed by a Factor Xa cleavage site/linker, a portion of optimized IgG1 Fc domain (Pro100-Lys330), and 6 His residues for purification. The GFRα4b isoform comprised a portion of GFRα4b (Asn24-Va1274, UniProt #Q9GZZ7-1), followed by a TEV cleavage site linker, and a portion of human IgG1 Fc domain (Asp104-Lys330).
In general terms: ELISA stands for enzyme-linked immunosorbent assay.
B1: the binding result was “no binding”.

As to B2, the binding result is “no binding”.

With B3, the binding result is “no binding”.

Take B4: the binding result is reported as “no binding”.

In the case of B5, the binding result was “no binding”.

Regarding B6, the binding result is recorded as “no binding”.

The target of the next experiment is T2, GFRα4 isoform b (GFRα4b), Fc fusion (human).
T2 construct: the entry holds the whole fusion; also called GFR4α4b; GFRα4-Fc
In words: phage ELISA, immobilized GFRα4b; second token of the cell.
Excerpt: as §1
As to B7, the binding result is “no binding”.

For B8, the binding result is “no binding”.

Turning to B9, the binding result is “no binding”.

Consider B10, for which the binding result is on record as “binds”.

For the molecule B11, the binding result is given as “binds”.

In the case of B12, the binding result is “binds”.

For B13, the binding result is “no binding”.

Take B14: the binding result is recorded as “binds”.

Regarding B15, the binding result is reported as “no binding”.

On to B16, for which the binding result is “binds”.

Turning to B17, the binding result was “binds”.

For the molecule B18, the binding result was “no binding”.

The target in a further experiment is T1, GFRα4 isoform a (GFRα4a), Fc fusion …. The experiment can be described thus: phage ELISA, immobilized GFRα4a; first token of the cell.
Excerpt: as §1
For B7, the binding result is given as “no binding”.

As for B8, the binding result is given as “no binding”.

With B9, the binding result is “no binding”.

Turning to B10, the binding result was “binds”.

Take B11: the binding result is reported as “binds”.

Take B12: the binding result is “binds”.

Regarding B13, the binding result is listed as “no binding”.

B14: the binding result is listed as “binds”.

Take B15: the binding result is “no binding”.

As for B16, the binding result is on record as “binds”.

On to B17, for which the binding result is “binds”.

For B18, the binding result is “no binding”.
